Residue numbers refer to the chain shown, from its start.
Columns and labels:
[1] = substrate: CC(C)(O/N=C(\C(=O)N[C@@H]1C(=O)N2C(C(=O)[O-])=C(C[n+]3ccccc3)CS[C@H]12)c1csc(N)n1)C(=O)O; assay: (§1) Activity of Klebsiella pneumoniae AH27 CTX-M-15 beta-lactamase
[2] = substrate: CC1(C)S[C@@H]2[C@H](NC(=O)Cc3ccccc3)C(=O)N2[C@H]1C(=O)O; assay: as §1
[3] = substrate: C[C@@H](O)[C@H]1C(=O)N2C(C(=O)O)=C(SCCNC=N)C[C@H]12; assay: as §1
[4] = substrate: CO/N=C(\C(=O)N[C@@H]1C(=O)N2C(C(=O)O)=C(COC(N)=O)CS[C@H]12)c1ccco1; assay: as §1
[5] = substrate: O=C(Cc1cccs1)N[C@@H]1C(=O)N2C(C(=O)[O-])=C(C[n+]3ccccc3)CS[C@H]12; assay: as §1
[6] = substrate: C[C@@H](O)[C@H]1C(=O)N2C(C(=O)O)=C(S[C@@H]3CN[C@H](C(=O)N(C)C)C3)[C@H](C)[C@H]12; assay: as §1
[7] = substrate: CO/N=C(\C(=O)N[C@@H]1C(=O)N2C(C(=O)O)=C(COC(C)=O)CS[C@H]12)c1csc(N)n1; assay: as §1
[8] = substrate: C[C@@H](O)[C@H]1C(=O)N2C(C(=O)O)=C(S[C@@H]3CN[C@H](CNS(N)(=O)=O)C3)[C@H](C)[C@H]12; assay: as §1
[9] = substrate: CC(C)(O/N=C(\C(=O)N[C@@H]1C(=O)N2C(C(=O)[O-])=C(C[n+]3ccccc3)CS[C@H]12)c1csc(N)n1)C(=O)O; assay: (§2) Activity of Klebsiella pneumoniae AH24-270 CTX-M-71 beta-lactamase
[10] = substrate: C[C@@H](O)[C@H]1C(=O)N2C(C(=O)O)=C([C@H]3CCCO3)S[C@H]12; assay: as §2
[11] = substrate: CC1(C)S[C@@H]2[C@H](NC(=O)Cc3ccccc3)C(=O)N2[C@H]1C(=O)O; assay: as §2
[12] = substrate: C[C@@H](O)[C@H]1C(=O)N2C(C(=O)O)=C(SCCNC=N)C[C@H]12; assay: as §2
[13] = substrate: CO/N=C(\C(=O)N[C@@H]1C(=O)N2C(C(=O)O)=C(COC(N)=O)CS[C@H]12)c1ccco1; assay: as §2
[14] = substrate: CC1(C)S[C@@H]2[C@H](NC(=O)[C@H](N)c3ccc(O)cc3)C(=O)N2[C@H]1C(=O)O; assay: as §2
[15] = substrate: O=C(Cc1cccs1)N[C@@H]1C(=O)N2C(C(=O)[O-])=C(C[n+]3ccccc3)CS[C@H]12; assay: as §2
[16] = substrate: C[C@@H](O)[C@H]1C(=O)N2C(C(=O)O)=C(S[C@@H]3CN[C@H](C(=O)N(C)C)C3)[C@H](C)[C@H]12; assay: as §2
[17] = substrate: CCN1CCN(C(=O)N[C@@H](C(=O)N[C@@H]2C(=O)N3[C@@H]2SC(C)(C)[C@@H]3C(=O)O)c2ccccc2)C(=O)C1=O; assay: as §2
[18] = substrate: CO/N=C(\C(=O)N[C@@H]1C(=O)N2C(C(=O)O)=C(COC(C)=O)CS[C@H]12)c1csc(N)n1; assay: as §2
[19] = substrate: C[C@@H](O)[C@H]1C(=O)N2C(C(=O)O)=C(S[C@@H]3CN[C@H](CNS(N)(=O)=O)C3)[C@H](C)[C@H]12; assay: as §2
[20] = substrate: C[C@H]1[C@H](NC(=O)/C(=N\OC(C)(C)C(=O)O)c2csc(N)n2)C(=O)N1S(=O)(=O)O; assay: as §2

B1: Beta-lactamase AH27 CTX-M-15 (Klebsiella pneumoniae), Q2PUH3 (protein)
chain: MVKKSLRQFTLMATATVTLLLGSVPLYAQTADVQQKLAELERQSGGRLGVALINTADNSQILYRADERFAMCSTSKVMAAAAVLKKSESEPNLLNQRVEIKKSDLVNYNPIAEKHVNGTMSLAELSAAALQYSDNVAMNKLIAHVGGPASVTAFARQLGDETFRLDRTEPTLNTAIPGDPRDTTSPRAMAQTLRNLTLGKALGDSQRAQLVTWMKGNTTGAASIQAGLPASWVVGDKTGSGGYGTTNDIAVIWPKDRAPLILVTYFTQPQPKAESRRDVLASAAKIVTDGL
Km [1]: 236 µM
kcat [1]: 4.4 s⁻¹
Km [2]: 8.7 µM
kcat [2]: 47 s⁻¹
kcat [3]: < 0.17 s⁻¹
Km [4]: 180 µM
kcat [4]: 45 s⁻¹
Km [5]: 39 µM
kcat [5]: 188 s⁻¹
kcat [6]: < 0.004 s⁻¹
Km [7]: 26 µM
kcat [7]: 176 s⁻¹
kcat [8]: < 0.002 s⁻¹

B2: Extended spectrum beta-lactamase CTX-M-71 (Klebsiella pneumoniae), C8YUV9 (protein)
chain: B1 chain with G241C
Km [9]: 180 µM
kcat [9]: 0.69 s⁻¹
kcat [10]: < 0.46 s⁻¹
Km [11]: 4.9 µM
kcat [11]: 58 s⁻¹
kcat [12]: < 0.07 s⁻¹
Km [13]: 85 µM
kcat [13]: 8.8 s⁻¹
Km [14]: 5.2 µM
kcat [14]: 49 s⁻¹
Km [15]: 18 µM
kcat [15]: 68 s⁻¹
kcat [16]: < 0.07 s⁻¹
Km [17]: 3.2 µM
kcat [17]: 27 s⁻¹
Km [18]: 130 µM
kcat [18]: 65 s⁻¹
kcat [19]: < 0.05 s⁻¹
Km [20]: 10 µM
kcat [20]: 0.84 s⁻¹
